Measured values as given in PMC4128088 (Structure (London, England : 1993), 2014).

Target: the molecule itself
Experiment: SAXS

B1: Human Presequence Protease E107Q (hPreP E107Q) (enzyme, UniProt Q5JRX3 34-1037, looked up)
chain: CERALQYKLGDKIHGFTVNQVTSVPELFLTAVKLTHDDTGARYLHLAREDTNNLFSVQFRTTPMDSTGVPHILQHTVLCGSQKYPCRDPFFKMLNRSLSTFMNAFTASDYTLYPFSTQNPKDFQNLLSVYLDATFFPCLRELDFWQEGWRLEHENPSDPQTPLVFKGVVFNEMKGAFTDNERIFSQHLQNRLLPDHTYSVVSGGDPLCIPELTWEQLKQFHATHYHPSNARFFTYGNFPLEQHLKQIHEEALSKFQKIEPSTVVPAQTPWDKPREFQITCGPDSFATDPSKQTTISVSFLLPDITDTFEAFTLSLLSSLLTSGPNSPFYKALIESGLGTDFSPDVGYNGYTREAYFSVGLQGIAEKDIETVRSLIDRTIDEVVEKGFEDDRIEALLHKIEIQMKHQSTSFGLMLTSYIASCWNHDGDPVELLKLGNQLAKFRQCLQENPKFLQEKVKQYFKNNQHKLTLSMRPDDKYHEKQAQVEATKLKQKVEALSPGDRQQIYEKGLELRSQQSKPQDASCLPALKVSDIEPTIPVTELDVVLTAGDIPVQYCAQPTNGMVYFRAFSSLNTLPEELRPYVPLFCSVLTKLGCGLLDYREQAQQIELKTGGMSASPHVLPDDSHMDTYEQGVLFSSLCLDRNLPDMMQLWSEIFNNPCFEEEEHFKVLVKMTAQELANGIPDSGHLYASIRAGRTLTPAGDLQETFSGMDQVRLMKRIAEMTDIKPILRKLPRIKKHLLNGDNMRCSVNATPQQMPQTEKAVEDFLRSIGRSKKERRPVRPHTVEKPVPSSSGGDAHVPHGSQVIRKLVMEPTFKPWQMKTHFLMPFPVNYVGECIRTVPYTDPDHASLKILARLMTAKFLHTEIREKGGAYGGGAKLSHNGIFTLYSYRDPNTIETLQSFGKAVDWAKSGKFTQQDIDEAKLSVFSTVDAPVAPSDKGMDHFLYGLSDEMKQAHREQLFAVSHDKLLAVSDRYLGTGKSTHGLAILGPENPKIAKDPSWIIQ
- stoichiometry N: 2
